Test results as given in article PMC10382590, “Six states of Enterococcus hirae V-type ATPase reveals non-uniform rotor rotation during turnover” (Communications Biology, 2023).

B1: Enterococcus hirae V-ATPase d-subunit (natural protein, UniProt P43456 1-328, looked up)
chain: MEYHELNPLIRGRELELISKDTFEQMIQTDSIDSLGEILQSTIYQPYIYDGFDKDFEANLSQERSKLFQWLKESAPEPEIVWIYTMRYTFHNLKVLTKAEITGQNLDHLYIHDGFYSLEVLKDAIHTQVSVELPDSLMDYIREVHEYCEESTILQGIDVIYDRCFLTEQRRLGEQLGYPELLEEIIAFIDLTNITTTARGILQHRSAGFMTTVISSSGSIPKDTLLSFVRGEMASFTQFLLTTDYSELLKQVIHEEQIDLVSLEQLKDDYLSSFYQVAQTQAFGPLPLLAFLNAKEVESKNLRLLIIGKRNHFSLEQLKERMRQVYDL
notes: d-subunit (terminus of the rotor shaft) of the V-type Na+-ATPase of Enterococcus hirae; Modelled by homology (I-TASSER, template PDB 1R5Z of another species) and fitted as a rigid body; also called rotor shaft terminus; source: E. coli, recombinant; purified as part of the whole EhV-ATPase complex (Ni-NTA, Superdex 200, 0.05% DDM)

Columns and labels:
[1] = target: T1, Enterococcus hirae V-ATPase a-subunit (Enterococcus hirae, UniProt P43439 1-664); experiment: cryo-EM structure; detergent-solubilised (0.05% DDM) whole EhV-ATPase, 0.13 mM, with 7 mM ATP, 100 mM Na+ and Mg2+, vitrified during turnover; six states (1, 1', 2, 2', 3, 3') sorted from one sample, whole-complex maps 4.3-7.7 A, V1-focussed maps 3.8-7.7 A; crystal structures and homology models fitted into the maps; details: both partners purified
T1 construct: a-subunit (stator, membrane-integrated region and extrinsic arm) of the V-type Na+-ATPase of Enterococcus hirae; Modelled by homology (I-TASSER, template PDB 6C6L of another species); also called stator a-subunit; source: E. coli, recombinant; purified as part of the whole EhV-ATPase complex (Ni-NTA, Superdex 200, 0.05% DDM)
T1 sequence (looked up): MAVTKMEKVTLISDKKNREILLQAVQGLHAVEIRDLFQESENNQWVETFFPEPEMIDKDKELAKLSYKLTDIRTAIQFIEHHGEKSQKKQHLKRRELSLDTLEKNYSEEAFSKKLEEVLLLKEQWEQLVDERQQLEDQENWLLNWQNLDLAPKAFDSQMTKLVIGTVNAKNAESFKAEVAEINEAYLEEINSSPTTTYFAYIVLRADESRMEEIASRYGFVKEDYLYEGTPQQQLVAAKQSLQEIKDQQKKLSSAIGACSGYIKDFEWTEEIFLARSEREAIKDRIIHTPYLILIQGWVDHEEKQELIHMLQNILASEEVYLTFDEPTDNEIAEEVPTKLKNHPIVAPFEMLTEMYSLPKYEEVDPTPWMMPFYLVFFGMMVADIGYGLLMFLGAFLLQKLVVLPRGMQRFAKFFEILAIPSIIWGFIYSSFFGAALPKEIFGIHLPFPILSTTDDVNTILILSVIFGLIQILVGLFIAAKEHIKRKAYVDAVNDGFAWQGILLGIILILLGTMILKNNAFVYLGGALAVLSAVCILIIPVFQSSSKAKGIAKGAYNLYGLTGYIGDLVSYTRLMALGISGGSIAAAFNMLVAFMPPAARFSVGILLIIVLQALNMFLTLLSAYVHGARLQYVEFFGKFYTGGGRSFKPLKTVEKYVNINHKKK

[2] = target: B1; experiment: as above; details: both partners purified

Row | Binder | binding result [1] | binding result [2]
1 | Enterococcus hirae V-ATPase EG peripheral stalk (complex, E-subunit of the V-type Na+-ATPase of Enterococcus hirae; G-subunit of the V-type Na+-ATPase of Enterococcus hirae; Two such stalks stand in the complex; E and G were modelled by homology (templates PDB 4DT0 and 5GAS of other species); also called EG stalk complex; EG stalks; source: E. coli, recombinant; purified as part of the whole EhV-ATPase complex (Ni-NTA, Superdex 200, 0.05% DDM)) chain 1: MPIDKIITQINETAQLERASFEEMKRKEIDQKFEVKKWQIEADFQKEKASKLEEIERSYRQLRNKQKMQVKQEILNAKQEVLQRLFTEATLQLENEPKEEQLALMKQMIQTLPINGTARLIPGEKSADILTPAVIAEWNEELPFELIREDFTEKAQAGLIIDDAGIQYNFLFSHLIKEIQETMSAEIAKELFD chain 2: MARILTRIKEAEENNQKKEEQVKAELAQYEQLKNNELIDLNKEFQERLTKLMKEKEKNEEEVTEDEQHKLELILEQFRQKVLEIEKTYLEKEEEEIAKKKNLTNEIIERMKQNNGCH | binds | 
2 | B1 | binds | 
3 | Enterococcus hirae V-ATPase D-subunit (natural protein, D-subunit (rotor shaft) of the V-type Na+-ATPase of Enterococcus hirae; also called rotor D-subunit; source: E. coli, recombinant; purified as part of the whole EhV-ATPase complex (Ni-NTA, Superdex 200, 0.05% DDM)) MRLNVNPTRMELTRLKKQLTTATRGHKLLKDKQDELMRQFILLIRKNNELRQAIEKETQTAMKDFVLAKSTVEEAFIDELLALPAENVSISVVEKNIMSVKVPLMNFQYDETLNETPLEYGYLHSNAELDRSIDGFTQLLPKLLKLAEVEKTCQLMAEEIEKTRRRVNALEYMTIPQLEETIYYIKMKLEENERAEVTRLIKVKNMGTEE |  | binds
